Assay results: the supplement of paper PMC10065799, “High-throughput profiling of sequence recognition by tyrosine kinases and SH2 domains using bacterial peptide display” (eLife, 2023)

System: c-Src
Test: phosphorylation enrichment, bacterial display (enrichment ratio); higher = better substrate or ligand; peptides without Tyr show the background
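For SH2 binding enrichment of the phosphorylated peptide, bacterial display in this document: peptide library displayed on the E. coli surface as eCPX fusions, selected cells deep-sequenced, score is each peptide's frequency after selection divided by its frequency in the input.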
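For phosphorylation enrichment, bacterial display in this document: 11-residue human phosphosite peptides and single-mutation variants displayed on the E. coli surface, counted by deep sequencing, each peptide's frequency after selection divided by its frequency in the unselected input library; frequency after pTyr selection over input frequency; kinase dosed for 20-30% of maximal phosphorylation in three min.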

Sequence | phosphorylation enrichment
TQPSPYAVFLF [RPGRIP1_Y823_R827L_YF] | 5.76
SLAARYYNWVS [FLT4_Y1230] | 0.746
DVCKNYAEAKD [ALB_Y343] | 0.55
DVQNEYDSNHC [ZFYVE16_Y36_A35E] | 0.444
GFWPRYVKVGS [NOG_Y172_R167G] | 0.402
ERNAHYRTPKI [PTK2B_Y699_R698H] | 0.387
QGIYGYHHHMQ [UFSP2_Y287_Y290H] | 7.86
NELTFYCFKKD [CD59_Y87_C89Y_YF] | 0.35
PEAALYGRFTF [FYN_Y440_I445F] | 7.87
SYNNKYGMVAQ [APOB_Y276_K273N] | 0.467
ERTIEYLEEVV [HADHA_Y239_A244V] | 0.487
FIAVGYVDDSQ [HLA-A_Y51_T55S] | 0.394
DPGVSYRTREE [PDHA1_Y301] | 0.376
IKSSIYDNRNE [ARAP2_Y380_K384N] | 0.399
ELAINYQEQAS [SLC9A9_Y591] | 0.403
EKFVPYYDLFM [IPO5_Y530] | 4.22
DRLAVYIDRVR [LMNA_Y45] | 0.359

Sequence | phosphorylation enrichment
LPPGTYPSDFT [UNC5B_Y511_A516T] | 0.697
LVRPPYSYSAL [FOXI1_Y126] | 0.704
KDHPDYKYQLR [SOX10_Y171_P175L] | 0.411
KVVVPYEPPEV [TP53_Y220_S215K] | 0.408
AALSAYAAQRP [PTPRN2_Y249] | 0.315
SEPSGYQDNIA [DES_Y363_A360P] | 0.47
LNSFIYSLRNR [OR1A1_Y288_P285S] | 4.01
SLAARYFNWVC [FLT4_Y1230_S1235C_YF] | 0.397
LEHCQYVTQKV [ALDOB_Y204_E207Q] | 0.617
PEQAAYQKVVA [HBB_Y131_V127E] | 0.472
GNYSGYDDAWD [POLR1C_Y36] | 0.586
QNKEDYDGLKE [GSTO1_Y139_A140D] | 0.641
TNLVPYPCIHF [TUBA1A_Y262_R264C] | 0.519
LKGQVYILGWE [ASS1_Y359_R363W] | 0.575
LLKANYELLNA [POLR3A_Y714_K713N] | 0.814
RQEEEYKRLSE [SFSWAP_Y133] | 1.2

Target: Grb2 SH2 (UniProt P62993)
Test: SH2 binding enrichment of the phosphorylated peptide, bacterial display (enrichment ratio); higher = better substrate or ligand; peptides without Tyr show the background

Sequence | SH2 binding enrichment
TQPSPYAVFLF [RPGRIP1_Y823_R827L_YF] | 0.91
SLAARYYNWVS [FLT4_Y1230] | 14.2
DVQNEYDSNHC [ZFYVE16_Y36_A35E] | 1.1
GFWPRYVKVGS [NOG_Y172_R167G] | 0.645
QGIYGYHHHMQ [UFSP2_Y287_Y290H] | 1.09
NELTFYCFKKD [CD59_Y87_C89Y_YF] | 0.754
FIAVGYVDDSQ [HLA-A_Y51_T55S] | 0.91
DPGVSYRTREE [PDHA1_Y301] | 0.744
ELAINYQEQAS [SLC9A9_Y591] | 0.905
EKFVPYYDLFM [IPO5_Y530] | 1.72
DRLAVYIDRVR [LMNA_Y45] | 1.07
KDHPDYKYQLR [SOX10_Y171_P175L] | 0.93
AALSAYAAQRP [PTPRN2_Y249] | 0.813
SEPSGYQDNIA [DES_Y363_A360P] | 0.743
PEQAAYQKVVA [HBB_Y131_V127E] | 0.782
GNYSGYDDAWD [POLR1C_Y36] | 0.833
QNKEDYDGLKE [GSTO1_Y139_A140D] | 1.09
TNLVPYPCIHF [TUBA1A_Y262_R264C] | 0.894
LLKANYELLNA [POLR3A_Y714_K713N] | 0.834
RQEEEYKRLSE [SFSWAP_Y133] | 1.02

Other lines, results leading:

SH2 binding enrichment | Sequence
0.739 | DVCKNYAEAKD [ALB_Y343]
0.707 | ERNAHYRTPKI [PTK2B_Y699_R698H]
0.652 | PEAALYGRFTF [FYN_Y440_I445F]
0.713 | SYNNKYGMVAQ [APOB_Y276_K273N]
0.836 | ERTIEYLEEVV [HADHA_Y239_A244V]
0.682 | IKSSIYDNRNE [ARAP2_Y380_K384N]
0.885 | LPPGTYPSDFT [UNC5B_Y511_A516T]
0.885 | LVRPPYSYSAL [FOXI1_Y126]
0.709 | KVVVPYEPPEV [TP53_Y220_S215K]
0.732 | LNSFIYSLRNR [OR1A1_Y288_P285S]
2.08 | SLAARYFNWVC [FLT4_Y1230_S1235C_YF]
0.957 | LEHCQYVTQKV [ALDOB_Y204_E207Q]
1.01 | LKGQVYILGWE [ASS1_Y359_R363W]

Target: SHP2-C SH2
Test: as above

Sequence | SH2 binding enrichment
TQPSPYAVFLF [RPGRIP1_Y823_R827L_YF] | 0.82
SLAARYYNWVS [FLT4_Y1230] | 2.19
DVQNEYDSNHC [ZFYVE16_Y36_A35E] | 0.692
GFWPRYVKVGS [NOG_Y172_R167G] | 0.834
QGIYGYHHHMQ [UFSP2_Y287_Y290H] | 1.07
NELTFYCFKKD [CD59_Y87_C89Y_YF] | 0.504
FIAVGYVDDSQ [HLA-A_Y51_T55S] | 0.959
DPGVSYRTREE [PDHA1_Y301] | 0.844
ELAINYQEQAS [SLC9A9_Y591] | 0.556
EKFVPYYDLFM [IPO5_Y530] | 1.46
DRLAVYIDRVR [LMNA_Y45] | 0.861
KDHPDYKYQLR [SOX10_Y171_P175L] | 0.793
AALSAYAAQRP [PTPRN2_Y249] | 0.662
SEPSGYQDNIA [DES_Y363_A360P] | 0.92
PEQAAYQKVVA [HBB_Y131_V127E] | 0.497
GNYSGYDDAWD [POLR1C_Y36] | 0.595
QNKEDYDGLKE [GSTO1_Y139_A140D] | 0.737
TNLVPYPCIHF [TUBA1A_Y262_R264C] | 0.802
LLKANYELLNA [POLR3A_Y714_K713N] | 0.973
RQEEEYKRLSE [SFSWAP_Y133] | 0.539

The remaining lines, values ahead:

SH2 binding enrichment | Sequence
0.618 | DVCKNYAEAKD [ALB_Y343]
0.611 | ERNAHYRTPKI [PTK2B_Y699_R698H]
0.563 | PEAALYGRFTF [FYN_Y440_I445F]
0.555 | SYNNKYGMVAQ [APOB_Y276_K273N]
0.594 | ERTIEYLEEVV [HADHA_Y239_A244V]
0.593 | IKSSIYDNRNE [ARAP2_Y380_K384N]
0.533 | LPPGTYPSDFT [UNC5B_Y511_A516T]
1.72 | LVRPPYSYSAL [FOXI1_Y126]
0.472 | KVVVPYEPPEV [TP53_Y220_S215K]
0.578 | LNSFIYSLRNR [OR1A1_Y288_P285S]
1.59 | SLAARYFNWVC [FLT4_Y1230_S1235C_YF]
1.18 | LEHCQYVTQKV [ALDOB_Y204_E207Q]
0.827 | LKGQVYILGWE [ASS1_Y359_R363W]

Target: c-Src SH2
Test: as above

Sequence | SH2 binding enrichment
TQPSPYAVFLF [RPGRIP1_Y823_R827L_YF] | 0.494
SLAARYYNWVS [FLT4_Y1230] | 3.84
DVQNEYDSNHC [ZFYVE16_Y36_A35E] | 0.541
GFWPRYVKVGS [NOG_Y172_R167G] | 0.443
QGIYGYHHHMQ [UFSP2_Y287_Y290H] | 1.07
NELTFYCFKKD [CD59_Y87_C89Y_YF] | 0.404
FIAVGYVDDSQ [HLA-A_Y51_T55S] | 0.704
DPGVSYRTREE [PDHA1_Y301] | 0.732
ELAINYQEQAS [SLC9A9_Y591] | 0.536
EKFVPYYDLFM [IPO5_Y530] | 3.84
DRLAVYIDRVR [LMNA_Y45] | 0.682
KDHPDYKYQLR [SOX10_Y171_P175L] | 0.631
AALSAYAAQRP [PTPRN2_Y249] | 0.457
SEPSGYQDNIA [DES_Y363_A360P] | 0.476
PEQAAYQKVVA [HBB_Y131_V127E] | 0.669
GNYSGYDDAWD [POLR1C_Y36] | 5.84
QNKEDYDGLKE [GSTO1_Y139_A140D] | 0.765
TNLVPYPCIHF [TUBA1A_Y262_R264C] | 0.591
LLKANYELLNA [POLR3A_Y714_K713N] | 1.51
RQEEEYKRLSE [SFSWAP_Y133] | 0.469

More lines, now with the values ahead:

SH2 binding enrichment | Sequence
1.02 | DVCKNYAEAKD [ALB_Y343]
0.521 | ERNAHYRTPKI [PTK2B_Y699_R698H]
0.328 | PEAALYGRFTF [FYN_Y440_I445F]
0.49 | SYNNKYGMVAQ [APOB_Y276_K273N]
0.451 | ERTIEYLEEVV [HADHA_Y239_A244V]
0.608 | IKSSIYDNRNE [ARAP2_Y380_K384N]
0.445 | LPPGTYPSDFT [UNC5B_Y511_A516T]
1.8 | LVRPPYSYSAL [FOXI1_Y126]
0.86 | KVVVPYEPPEV [TP53_Y220_S215K]
0.59 | LNSFIYSLRNR [OR1A1_Y288_P285S]
1.43 | SLAARYFNWVC [FLT4_Y1230_S1235C_YF]
0.731 | LEHCQYVTQKV [ALDOB_Y204_E207Q]
0.684 | LKGQVYILGWE [ASS1_Y359_R363W]
